To fix the notation:
B1: CD137 #3 (B21.V22) + FAP #3 (A11 VK7/VH1) (bispecific antibody, human IgG1, kappa, L234A L235A)
heavy: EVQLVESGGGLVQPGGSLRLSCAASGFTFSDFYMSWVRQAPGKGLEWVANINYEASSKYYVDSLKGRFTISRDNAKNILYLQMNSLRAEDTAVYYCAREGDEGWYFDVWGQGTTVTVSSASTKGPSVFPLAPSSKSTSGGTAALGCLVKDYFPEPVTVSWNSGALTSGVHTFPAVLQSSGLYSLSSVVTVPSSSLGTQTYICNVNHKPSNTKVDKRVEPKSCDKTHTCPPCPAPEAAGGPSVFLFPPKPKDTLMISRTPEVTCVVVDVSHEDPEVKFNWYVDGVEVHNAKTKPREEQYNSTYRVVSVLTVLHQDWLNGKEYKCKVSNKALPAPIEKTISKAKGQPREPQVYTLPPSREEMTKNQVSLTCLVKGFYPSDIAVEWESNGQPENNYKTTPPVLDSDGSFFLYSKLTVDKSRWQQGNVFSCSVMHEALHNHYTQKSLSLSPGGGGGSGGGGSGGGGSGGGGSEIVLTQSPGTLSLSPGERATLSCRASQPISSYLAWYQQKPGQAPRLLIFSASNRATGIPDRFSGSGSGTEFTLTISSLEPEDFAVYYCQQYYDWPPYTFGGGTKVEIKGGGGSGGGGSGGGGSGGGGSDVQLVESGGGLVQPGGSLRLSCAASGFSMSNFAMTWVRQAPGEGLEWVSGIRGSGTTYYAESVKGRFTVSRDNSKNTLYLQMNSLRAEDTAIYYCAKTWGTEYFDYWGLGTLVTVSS
light: DIQMTQSPSSLSASVGDRVTITCRASQSVSSALAWYQQKPGKAPKLLIYAASYRQSGVPSRFSGSGSGTDFTLTISSLQPEDFAVYYCQQHYSNPWTFGQGTKLEIKRTVAAPSVFIFPPSDEQLKSGTASVVCLLNNFYPREAKVQWKVDNALQSGNSQESVTEQDSKDSTYSLSSTLTLSKADYEKHKVYACEVTHQGLSSPVTKSFNRGEC
B2: CD137 #5 (B21.V29) + FAP #5 (C3 VK1/VH4) (bispecific antibody, human IgG1, kappa, L234A L235A)
heavy: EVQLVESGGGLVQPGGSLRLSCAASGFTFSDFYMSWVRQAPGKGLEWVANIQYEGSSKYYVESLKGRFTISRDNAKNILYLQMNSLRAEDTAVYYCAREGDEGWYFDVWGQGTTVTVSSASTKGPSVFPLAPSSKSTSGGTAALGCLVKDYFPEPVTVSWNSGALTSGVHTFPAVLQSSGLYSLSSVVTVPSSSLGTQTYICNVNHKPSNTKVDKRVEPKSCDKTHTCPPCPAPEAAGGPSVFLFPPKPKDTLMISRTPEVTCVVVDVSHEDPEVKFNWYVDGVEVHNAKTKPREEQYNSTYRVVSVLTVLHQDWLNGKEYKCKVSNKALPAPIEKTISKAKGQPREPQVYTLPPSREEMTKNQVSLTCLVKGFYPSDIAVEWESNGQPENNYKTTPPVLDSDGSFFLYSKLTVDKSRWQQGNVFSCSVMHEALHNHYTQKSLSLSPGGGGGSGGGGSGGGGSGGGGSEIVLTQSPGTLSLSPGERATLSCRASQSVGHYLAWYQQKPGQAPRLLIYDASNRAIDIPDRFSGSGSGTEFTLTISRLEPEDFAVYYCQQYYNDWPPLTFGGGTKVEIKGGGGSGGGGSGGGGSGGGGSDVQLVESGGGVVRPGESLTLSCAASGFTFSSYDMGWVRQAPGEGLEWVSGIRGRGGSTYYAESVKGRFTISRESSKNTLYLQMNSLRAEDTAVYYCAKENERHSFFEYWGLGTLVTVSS
light: B1 light with V29I, S31T, Q55Y
B3: CD137 #4 (B21.V25) + FAP #2 (A11 VK3/VH3) (bispecific antibody, human IgG1, kappa, L234A L235A)
heavy: not shown
light: B1 light with V29I, S31T, L33V, R54L, Q55Y
B4: CD137 #3 (B21.V22) + FAP #5 (C3 VK1/VH4) (bispecific antibody, human IgG1, kappa, L234A L235A)
heavy: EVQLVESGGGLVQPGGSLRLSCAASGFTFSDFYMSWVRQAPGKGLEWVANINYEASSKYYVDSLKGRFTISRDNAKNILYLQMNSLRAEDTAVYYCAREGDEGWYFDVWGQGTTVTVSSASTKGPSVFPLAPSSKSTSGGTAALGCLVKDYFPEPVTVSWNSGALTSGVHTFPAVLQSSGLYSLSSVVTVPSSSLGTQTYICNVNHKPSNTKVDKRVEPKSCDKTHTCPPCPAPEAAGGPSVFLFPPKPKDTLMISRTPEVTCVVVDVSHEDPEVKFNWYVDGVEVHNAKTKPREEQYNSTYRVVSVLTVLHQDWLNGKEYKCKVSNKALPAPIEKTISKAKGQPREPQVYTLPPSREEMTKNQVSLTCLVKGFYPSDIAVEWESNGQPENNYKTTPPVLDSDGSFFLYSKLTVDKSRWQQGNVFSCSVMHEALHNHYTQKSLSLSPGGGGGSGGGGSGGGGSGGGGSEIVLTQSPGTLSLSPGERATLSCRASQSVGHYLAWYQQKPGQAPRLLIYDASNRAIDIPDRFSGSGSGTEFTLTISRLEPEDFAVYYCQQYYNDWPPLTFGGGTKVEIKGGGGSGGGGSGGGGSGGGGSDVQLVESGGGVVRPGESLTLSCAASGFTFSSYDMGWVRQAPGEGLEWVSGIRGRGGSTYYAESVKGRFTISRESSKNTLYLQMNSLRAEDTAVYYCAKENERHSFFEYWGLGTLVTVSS
light: B1 light
B5: CD137 #4 (B21.V25) + FAP #3 (A11 VK7/VH1) (bispecific antibody, human IgG1, kappa, L234A L235A)
heavy: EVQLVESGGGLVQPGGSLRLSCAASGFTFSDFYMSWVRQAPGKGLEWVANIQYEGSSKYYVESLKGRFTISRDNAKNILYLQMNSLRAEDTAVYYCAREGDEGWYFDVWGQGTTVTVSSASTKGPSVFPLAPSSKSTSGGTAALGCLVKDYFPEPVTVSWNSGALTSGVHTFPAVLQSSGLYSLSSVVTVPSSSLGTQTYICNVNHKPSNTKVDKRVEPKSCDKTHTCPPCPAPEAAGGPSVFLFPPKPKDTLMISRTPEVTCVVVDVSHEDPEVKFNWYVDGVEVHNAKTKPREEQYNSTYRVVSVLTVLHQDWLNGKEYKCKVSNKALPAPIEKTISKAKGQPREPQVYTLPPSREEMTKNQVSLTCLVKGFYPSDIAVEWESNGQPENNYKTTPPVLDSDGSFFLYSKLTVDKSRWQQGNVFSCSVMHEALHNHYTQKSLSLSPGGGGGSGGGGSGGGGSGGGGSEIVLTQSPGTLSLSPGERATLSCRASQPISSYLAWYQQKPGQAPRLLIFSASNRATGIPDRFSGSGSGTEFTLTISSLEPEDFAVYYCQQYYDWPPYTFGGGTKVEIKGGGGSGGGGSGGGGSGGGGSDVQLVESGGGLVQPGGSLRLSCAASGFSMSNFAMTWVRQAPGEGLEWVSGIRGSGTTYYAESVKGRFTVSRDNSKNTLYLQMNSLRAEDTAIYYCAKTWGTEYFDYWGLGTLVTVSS
light: B1 light with V29I, S31T, L33V, R54L, Q55Y
B6: CD137 #5 (B21.V29) + FAP #2 (A11 VK3/VH3) (bispecific antibody, human IgG1, kappa, L234A L235A)
heavy: not shown
light: B1 light with V29I, S31T, Q55Y
B7: CD137 #3 (B21.V22) + FAP #2 (A11 VK3/VH3) (bispecific antibody, human IgG1, kappa, L234A L235A)
heavy: not shown
light: B1 light
B8: CD137 #10 (A49.V48) + FAP #3 (A11 VK7/VH1) (bispecific antibody, human IgG1, kappa, L234A L235A)
heavy: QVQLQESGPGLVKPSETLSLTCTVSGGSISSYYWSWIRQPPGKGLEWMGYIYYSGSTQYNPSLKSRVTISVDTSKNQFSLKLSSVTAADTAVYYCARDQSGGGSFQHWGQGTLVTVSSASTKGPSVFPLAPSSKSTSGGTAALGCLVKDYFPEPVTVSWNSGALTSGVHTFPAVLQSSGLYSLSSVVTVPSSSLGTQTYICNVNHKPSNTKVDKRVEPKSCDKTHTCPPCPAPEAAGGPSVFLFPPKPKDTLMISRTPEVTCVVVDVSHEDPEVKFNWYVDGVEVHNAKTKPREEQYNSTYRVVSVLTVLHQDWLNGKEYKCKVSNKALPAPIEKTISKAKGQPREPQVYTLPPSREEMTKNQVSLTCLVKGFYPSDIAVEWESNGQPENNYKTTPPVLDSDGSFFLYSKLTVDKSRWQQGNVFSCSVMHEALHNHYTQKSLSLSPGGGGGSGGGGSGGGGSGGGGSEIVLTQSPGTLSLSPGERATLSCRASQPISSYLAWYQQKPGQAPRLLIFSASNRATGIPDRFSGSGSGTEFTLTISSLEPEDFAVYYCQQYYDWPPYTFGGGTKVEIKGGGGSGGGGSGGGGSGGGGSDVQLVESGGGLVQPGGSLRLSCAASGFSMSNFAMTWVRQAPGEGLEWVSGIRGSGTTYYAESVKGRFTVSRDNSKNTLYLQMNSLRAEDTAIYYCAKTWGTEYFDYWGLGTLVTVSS
light: EIVMTQSPLSLPVTPGEPASISCRSSQSLLYSQGYNHLDWYLQKPGQSPQLLIYGGSNRASGVPDRFSGSGSGTDFTLKISRVEAEDVGVYYCMQALQTPPTFGQGTKLEIKRTVAAPSVFIFPPSDEQLKSGTASVVCLLNNFYPREAKVQWKVDNALQSGNSQESVTEQDSKDSTYSLSSTLTLSKADYEKHKVYACEVTHQGLSSPVTKSFNRGEC
B9: CD137 #10 (A49.V48) + FAP #5 (C3 VK1/VH4) (bispecific antibody, human IgG1, kappa, L234A L235A)
heavy: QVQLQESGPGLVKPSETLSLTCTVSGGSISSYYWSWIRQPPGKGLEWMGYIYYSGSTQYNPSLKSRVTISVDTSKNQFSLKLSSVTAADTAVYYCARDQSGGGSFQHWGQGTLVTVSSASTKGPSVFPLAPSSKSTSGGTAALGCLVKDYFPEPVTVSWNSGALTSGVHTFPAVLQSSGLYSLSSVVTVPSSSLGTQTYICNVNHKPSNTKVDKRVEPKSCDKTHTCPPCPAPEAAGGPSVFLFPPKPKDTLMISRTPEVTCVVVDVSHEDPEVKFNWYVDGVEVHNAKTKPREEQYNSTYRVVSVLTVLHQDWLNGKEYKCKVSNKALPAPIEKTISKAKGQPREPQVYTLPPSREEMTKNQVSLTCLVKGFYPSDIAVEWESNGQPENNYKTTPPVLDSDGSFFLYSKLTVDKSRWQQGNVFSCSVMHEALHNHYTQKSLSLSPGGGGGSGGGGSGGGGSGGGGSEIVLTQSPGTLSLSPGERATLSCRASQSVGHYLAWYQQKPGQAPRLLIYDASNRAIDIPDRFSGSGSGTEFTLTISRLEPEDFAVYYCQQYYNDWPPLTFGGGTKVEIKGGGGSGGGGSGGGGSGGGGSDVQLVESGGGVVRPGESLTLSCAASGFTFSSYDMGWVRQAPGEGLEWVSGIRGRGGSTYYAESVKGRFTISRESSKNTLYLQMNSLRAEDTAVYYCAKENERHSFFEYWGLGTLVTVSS
light: B8 light
B10: CD137 #9 (A49.V47) + FAP #2 (A11 VK3/VH3) (bispecific antibody, human IgG1, kappa, L234A L235A)
heavy: not shown
light: B8 light
B11: CD137 #9 (A49.V47) + FAP #5 (C3 VK1/VH4) (bispecific antibody, human IgG1, kappa, L234A L235A)
heavy: not shown
light: B8 light
B12: CD137 #9 (A49.V47) + FAP #3 (A11 VK7/VH1) (bispecific antibody, human IgG1, kappa, L234A L235A)
heavy: not shown
light: B8 light
B13: CD137 #10 (A49.V48) + FAP #2 (A11 VK3/VH3) (bispecific antibody, human IgG1, kappa, L234A L235A)
heavy: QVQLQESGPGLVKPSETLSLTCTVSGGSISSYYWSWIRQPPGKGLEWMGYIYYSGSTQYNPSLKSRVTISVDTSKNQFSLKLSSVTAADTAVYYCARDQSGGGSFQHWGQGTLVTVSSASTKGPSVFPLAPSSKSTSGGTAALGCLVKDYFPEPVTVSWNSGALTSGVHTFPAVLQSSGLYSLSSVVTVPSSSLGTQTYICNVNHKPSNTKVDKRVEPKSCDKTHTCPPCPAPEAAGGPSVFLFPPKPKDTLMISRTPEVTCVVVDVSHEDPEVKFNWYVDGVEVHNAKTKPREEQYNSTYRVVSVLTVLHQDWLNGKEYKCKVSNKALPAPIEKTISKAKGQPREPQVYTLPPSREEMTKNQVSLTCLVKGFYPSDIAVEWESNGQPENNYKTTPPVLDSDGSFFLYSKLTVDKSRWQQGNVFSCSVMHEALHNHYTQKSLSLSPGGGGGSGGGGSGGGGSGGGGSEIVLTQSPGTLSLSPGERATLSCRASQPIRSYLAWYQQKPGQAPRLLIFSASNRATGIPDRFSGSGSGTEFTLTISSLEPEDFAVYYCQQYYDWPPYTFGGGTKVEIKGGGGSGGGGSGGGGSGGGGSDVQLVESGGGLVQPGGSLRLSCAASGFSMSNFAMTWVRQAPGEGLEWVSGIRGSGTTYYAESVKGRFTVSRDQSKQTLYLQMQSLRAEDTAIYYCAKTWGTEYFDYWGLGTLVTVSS
light: B8 light
B14: CD137 #2 (B21.V16) + FAP #3 (A11 VK7/VH1) (bispecific antibody, human IgG1, kappa, L234A L235A)
heavy: not shown
light: B1 light with R24K, S28D, V29I, L33V, A50S, Y53S, Q55Y, S56T

Consider 14 molecules from US20250136720A1 (Boehringer Ingelheim, published 2025).

Numbering of substitutions follows the chain as printed.

One assay addresses T1, Human CD137 on Jurkat cells (human, UniProt Q07011 24-255). The assay is described as follows: cell-based or functional assay. Also noted: IC90; Jurkat-CD137 NFkB-luciferase, HT1080-FAP co-culture / EC90; Jurkat-CD137 NFkB-luciferase, HT1080-FAP co-culture: unit not given beside the values.
In the case of B1, the “EC90; Jurkat-CD137 NFkB-luciferase, HT1080-FAP co-culture” value was 2.41; the “IC90; Jurkat-CD137 NFkB-luciferase, HT1080-FAP co-culture” value is 144; the “Total AUC; Jurkat-CD137 NFkB-luciferase, HT1080-FAP co-culture” value (“Total AUC; Jurkat-CD137 NFkB-luciferase” for short) was found to be 1.9e+06.
The matching figures for B2: 0.8, 35.7 and 3.2e+06.
As for B3, the “EC90; Jurkat-CD137 NFkB-luciferase, HT1080-FAP co-culture” value turned out to be 0.65; the “IC90; Jurkat-CD137 NFkB-luciferase, HT1080-FAP co-culture” value was 46.9; the “Total AUC; Jurkat-CD137 NFkB-luciferase” value worked out at 3.3e+06.
The matching figures for B4: 2.18, 87.8 and 2.3e+06.
The matching figures for B5: 2.55, 492 and 2.5e+06.
For B6, in that order: 0.78, 62.8 and 2.9e+06.
As to B7, the “EC90; Jurkat-CD137 NFkB-luciferase, HT1080-FAP co-culture” value came out at 1.42; the “IC90; Jurkat-CD137 NFkB-luciferase, HT1080-FAP co-culture” value amounted to 69.6; the “Total AUC; Jurkat-CD137 NFkB-luciferase” value stood at 2.4e+06.
As for B8, the “EC90; Jurkat-CD137 NFkB-luciferase, HT1080-FAP co-culture” value is 1.91; the “IC90; Jurkat-CD137 NFkB-luciferase, HT1080-FAP co-culture” value was found to be 86.7; the “Total AUC; Jurkat-CD137 NFkB-luciferase” value came to 1.26e+07.
For B9, in that order: 6.24, 700 and 1.13e+07.
For B10, in that order: 3.01, 93.8 and 7.6e+06.
For B11, in that order: 4.23, 742 and 7.8e+06.
Turning to B12, the “EC90; Jurkat-CD137 NFkB-luciferase, HT1080-FAP co-culture” value is 1.65; the “IC90; Jurkat-CD137 NFkB-luciferase, HT1080-FAP co-culture” value was found to be 1.07; the “Total AUC; Jurkat-CD137 NFkB-luciferase” value worked out at 9.5e+06.
For B13, in that order: 2.57, 137 and 1.13e+07.

In another assay the target is T1, Human CD137 on Jurkat cells. As to the kind of experiment: cell-based or functional assay. The source holds these as a separate data set.
Regarding B14, the “Average EC50; Jurkat-CD137 NFkB-luciferase, HT1080-FAP co-culture” value (from here on “Average EC50”) was found to be 0.082 nM; the “Average EC90; Jurkat-CD137 NFkB-luciferase, HT1080-FAP co-culture” value (shortened to “Average EC90”) worked out at 0.613 nM; the “Average IC50; Jurkat-CD137 NFkB-luciferase, HT1080-FAP co-culture” value (“Average IC50” below) stood at 361 nM; the “Average IC90; Jurkat-CD137 NFkB-luciferase, HT1080-FAP co-culture” value (from here on “Average IC90”) is 48.4 nM. The “Ratio IC50/EC50; Jurkat-CD137 NFkB-luciferase, HT1080-FAP co-culture” value (shortened to “Ratio IC50/EC50”) turned out to be 4380 and the “Ratio IC90/EC90; Jurkat-CD137 NFkB-luciferase, HT1080-FAP co-culture” value (shortened to “Ratio IC90/EC90”) came to 79.1.
For B2, the “Average EC50” value was 0.115 nM; the “Average EC90” value was 0.644 nM; the “Average IC50” value was 319 nM; the “Average IC90” value came to 69.2 nM. The “Ratio IC50/EC50” value is 2790 and the “Ratio IC90/EC90” value came to 107.
For the molecule B3, the “Average EC50” value is 0.273 nM; the “Average EC90” value was found to be 0.738 nM; the “Average IC50” value came to 888 nM; the “Average IC90” value worked out at 84 nM. The “Ratio IC50/EC50” value worked out at 3260 and the “Ratio IC90/EC90” value stood at 114.
Take B5: the “Average EC50” value is 0.248 nM; the “Average EC90” value worked out at 1.51 nM; the “Average IC50” value was determined as 747 nM; the “Average IC90” value stood at 79.2 nM. Also, the “Ratio IC50/EC50” value was determined as 3010 and the “Ratio IC90/EC90” value was determined as 52.3.
Consider B6, for which the “Average EC50” value is 0.16 nM; the “Average EC90” value was 0.883 nM; the “Average IC50” value was found to be 444 nM; the “Average IC90” value was determined as 86.7 nM. In addition, the “Ratio IC50/EC50” value worked out at 2780 and the “Ratio IC90/EC90” value turned out to be 98.1.
